Measurements taken from paper PMC8741639 (Structure (London, England : 1993), 2021).

Biological target: the molecule itself
Assay: cryo-EM structure

B1: AcrA, periplasmic membrane fusion protein of the AcrAB-TolC efflux pump (natural protein)
chain: CDDKQAQQGGQQMPAVGVVTVKTEPLQITTELPGRTSAYRIAEVRPQVSGIILKRNFKEGSDIEAGVSLYQIDPATYQATYDSAKGDLAKAQAAANIAQLTVNRYQKLLGTQYISKQEYDQALADAQQANAAVTAAKAAVETARINLAYTKVTSPISGRIGKSNVTEGALVQNGQATALATVQQLDPIYVDVTQSSNDFLRLKQELANGTLKQENGKAKVSLITSDGIKFPQDGTLEFSDVTVDQTTGSITLRAIFPNPDHTLLPGMFVRARLEEGLNPNAILVPQQGVTRTPRGDATVLVVGADDKVETRPIVASQAIGDKWLVTEGLKAGDRVVISGLQKVRPGVQVKAQEVTADNNQQAASGAQPEQSKS
**Q.** With B1 as the protein, how does the “stoichiometry N” value read?
**A.** 6
